Positions count from the first letter of the chain named. Entries after “also recorded” stand apart in the source; their conditions may differ. One block for each molecule: values may come before it.
Columns and labels:
Human NRP2 (aa23-855) = molecular target: T1, Human NRP2 (aa23-855) (Homo sapiens, UniProt O60462); assay: SPR binding affinity of anti-NRP2 antibodies to human NRP2 antigen; settings: KD = kd/ka, Langmuir (1:1) model
T1 construct: Human NRP2 (aa23-855)
T1 sequence (O60462 23-855 isoform O60462-3): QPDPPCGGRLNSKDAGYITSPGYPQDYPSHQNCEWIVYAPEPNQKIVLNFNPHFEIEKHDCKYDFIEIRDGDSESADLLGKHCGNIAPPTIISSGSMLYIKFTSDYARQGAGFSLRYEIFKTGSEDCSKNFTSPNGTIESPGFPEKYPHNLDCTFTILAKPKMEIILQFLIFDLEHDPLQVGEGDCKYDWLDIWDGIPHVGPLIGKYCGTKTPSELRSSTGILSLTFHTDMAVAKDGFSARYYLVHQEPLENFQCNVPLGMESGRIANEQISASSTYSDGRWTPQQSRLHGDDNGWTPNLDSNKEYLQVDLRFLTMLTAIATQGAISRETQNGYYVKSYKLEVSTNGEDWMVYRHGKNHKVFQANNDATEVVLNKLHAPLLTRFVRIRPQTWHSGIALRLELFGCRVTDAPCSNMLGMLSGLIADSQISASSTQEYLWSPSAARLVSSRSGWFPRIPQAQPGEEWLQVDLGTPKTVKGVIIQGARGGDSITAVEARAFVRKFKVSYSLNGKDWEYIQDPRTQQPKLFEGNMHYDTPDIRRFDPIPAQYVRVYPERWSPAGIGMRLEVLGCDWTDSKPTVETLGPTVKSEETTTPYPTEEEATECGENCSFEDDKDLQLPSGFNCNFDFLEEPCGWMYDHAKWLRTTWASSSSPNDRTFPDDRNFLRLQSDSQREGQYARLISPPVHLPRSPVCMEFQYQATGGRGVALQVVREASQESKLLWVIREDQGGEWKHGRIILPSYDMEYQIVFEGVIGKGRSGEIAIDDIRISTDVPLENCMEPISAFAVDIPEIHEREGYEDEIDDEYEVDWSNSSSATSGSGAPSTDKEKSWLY
Experimental: Anti-NRP2 antibody binding and affinity measurements. […] SPR experiments were conducted on a Bio-Rad ProteOn XPR36 Protein Interaction Array instrument. Biotinylated anti-human antibody (ThermoFisher Cat #7103302100) was immobilized on ProteOn NLC sensor chips. Anti-NRP2 antibodies were subsequently flowed over and captured by the anti-human antibody. Human NRP2 antigen protein was flowed over the captured antibody at varying concentrations (150, 50, 16.67, 5.56, 1.85 nM). The sensor chip surface was regenerated between each analyte run to remove anti-NRP2 antibodies and NRP2 protein. Data was double referenced against a surface with no anti-NRP2 antibody captured (immobilized anti-human antibody only) and a buffer only blank. Affinity constants were derived by globally fitting sensograms to a Langmuir (1:1) interaction model in the ProteOn manager software. For each anti-NRP2 antibody, data from the multiple NRP2 concentrations was fit as a single data set with dissociation rate constant (kd), association rate constant (ka) and Rmax values as global parameters. The reported binding affinity is the equilibrium dissociation constant (KD) calculated from kd/ka. • Running buffer: 50 mM HEPES, 300 mM NaCl, 5 mM CaCl2), 0.005% Tween-20, pH 7.4 • Immobilized antibody: CaptureSelect Human Fab-kappa Kinetics Biotin Conjugate, ThermoFisher Cat #7103302100 • Antigen: Human NRP2 (aa23-855) with C-terminal Avi-, Myc- and His-tags • Regeneration buffer: 10 mM glycine pH 2.0

[1] = system: phospho-Akt levels in U251 glioblastoma cells; assay: Semaphorin 3F mediated inhibition of AKT phosphorylation in U251 cells; format: cell-based
Experimental: As shown schematically in FIG. 17, the treatment of cells with Sema3F should specifically block PI3K activity via NRP2 mediated interaction with plexin A1, thereby resulting in reduced phospho-Akt levels. To directly test the ability of the anti-NRP2 antibodies to block this effect, lysates were prepared following standard protocols (MesoScale Discovery, Phospho (Ser473)/Total Akt Assay Whole Cell Lysate Kit #K15100D). Serum starved and confluent U251 cells (Sigma, Cat. 09063001) were treated with 10 nM rapamycin (Sigma, Cat. 553211, 30 minutes), and blocking antibodies or controls were added (10 μg/mL, 30 minutes), followed by 25 nM Sema3F or serum free media for 1 hour in triplicate. Lysate protein concentrations were determined by BCA assay and samples were equalized to 0.4 mg/mL. Phospho and Total AKT were measured following the manufacturer's instructions and percent phosphorylation was calculated by dividing phosphorylated AKT relative units by total AKT relative units. Blocking of Sema3F for each antibody or control was determined by comparing percent phosphorylation of Sema3F treated cells to percent phosphorylation of non-Sema3F treated cells.

NRP2/FLT4(VEGFR3) = molecular target: T2, NRP2/FLT4(VEGFR3) (Homo sapiens, UniProt O60462); assay: Split-luciferase receptor dimerization assay, NRP2/FLT4 with VEGF-C; format: cell-based; settings: antibody 100 nM; ligand induced dimerization
T2 construct: The complete extracellular domain and transmembrane helices of NRP2a (version 2), NRP2b (version 5); expressed in transfected cells; host or cells: Expi293, transient co-transfection
T2 sequence (O60462 23-859 isoform O60462-3 limits assumed): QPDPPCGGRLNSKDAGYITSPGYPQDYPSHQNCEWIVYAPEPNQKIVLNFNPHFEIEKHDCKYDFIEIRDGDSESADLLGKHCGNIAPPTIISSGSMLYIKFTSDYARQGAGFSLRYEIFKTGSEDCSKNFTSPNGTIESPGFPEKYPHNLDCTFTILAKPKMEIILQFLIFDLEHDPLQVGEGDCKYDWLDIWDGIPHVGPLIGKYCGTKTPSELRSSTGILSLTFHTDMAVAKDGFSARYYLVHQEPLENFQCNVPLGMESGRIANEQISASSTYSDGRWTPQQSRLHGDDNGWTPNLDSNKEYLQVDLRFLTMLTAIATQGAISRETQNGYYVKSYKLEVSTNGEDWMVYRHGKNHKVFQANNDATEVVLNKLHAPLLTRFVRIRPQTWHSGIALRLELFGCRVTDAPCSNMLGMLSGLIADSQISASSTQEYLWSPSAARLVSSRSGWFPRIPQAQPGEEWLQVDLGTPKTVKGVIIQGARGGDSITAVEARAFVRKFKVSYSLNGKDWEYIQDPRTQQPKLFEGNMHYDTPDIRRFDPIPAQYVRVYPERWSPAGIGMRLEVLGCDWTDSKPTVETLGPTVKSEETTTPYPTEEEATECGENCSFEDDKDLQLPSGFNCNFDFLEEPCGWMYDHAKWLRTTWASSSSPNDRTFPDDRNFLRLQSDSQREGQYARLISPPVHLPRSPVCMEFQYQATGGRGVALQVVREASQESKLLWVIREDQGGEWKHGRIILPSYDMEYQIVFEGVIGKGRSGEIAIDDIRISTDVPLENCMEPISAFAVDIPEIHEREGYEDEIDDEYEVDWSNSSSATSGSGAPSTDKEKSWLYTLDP
Experimental: (§1) To further extend the assessment of the biological activity of the anti-NRP2 antibodies, their activity was assessed in a receptor dimerization assay. In brief, vectors encoding a split luciferase pBiT1.1 and pBiT2.1 were obtained from Promega corporation (Madison, Wisconsin). The complete extracellular domain and transmembrane helices of NRP2a (version 2), NRP2b (version 5) (See table N1), FLT4 (VEGFR3), KDR (VEGFR2), and plexin A1 (PLXNA1) were cloned into the vectors and screened for optimal orientation, receptor density, and ligand induced dimerization, following established methods. Expi293 cells (Fisher) were transfected at 1 million cells/mL ˜20 hours prior to the assay with NRP2 and a co-receptor at equal mass amounts. Cells were counted, and 100,000 live cells were plated in a well of a white luminometer plate in Live Cell Imaging Solution (Fisher). Nano-Glo assay substrate (Promega) was added, and the plate was read on a Glomax 96 luminometer at room temperature to establish baseline luminescence. Antibodies were added to the well at 100 nM and the plate was again read to establish a new baseline and monitor the effects of the antibodies on spontaneous receptor dimerization. Depending on the receptor pair, typically 200 nM SEMA3F-p95 (aTyr Pharma), 2 nM VEGF-C(R&D Systems, Minnesota), or 2 nM VEGF165 (R&D Systems, Minnesota) were then added and the plate was again read to measure dimerization of receptors. Normalized responses for each individual well were calculated to the time point prior to addition of ligand, then normalized to no-antibody/no-ligand (baseline signal). Replicates were then processed to give average response and standard deviation. Results are summarized in Table E3 below, and shown graphically in FIGS. 3-10.

NRP2/PLXNA1 = assay: Split-luciferase receptor dimerization assay, NRP2/PLXNA1 with SEMA3F; format: cell-based, human; settings: antibody 100 nM; ligand induced dimerization
Experimental: as §1

- Kd (Human NRP2 (aa23-855)): 0.17 nM
B1: aNRP2-14v10: humanized, affinity matured anti-NRP2 antibody, target domain a2, semaphorin blocking; VH SEQ ID NO: 55, VL SEQ ID NO: 56 (antibody, V domains shown)
VH: QLQLVESGGGVVQPGRSLRLSCTVSGFSLTSYGVHWVRQAPGKGLEWVGLIWSGGSTDYSPAFISRFTISEDNSKSTVYLQMNSLRAEDTAVYFCARNSYSSGYYAMDYWGQGTTVTVSS
VL: DIQLTQSPSFLSASVGDRVTITCKASQNVGTAVAWYQQKPGKAPKLLIYSASNRYTGVPSRFSGSGSGTEFTLTISSLQPEDFATYYCQQRSRYPPYTFGGGTKVEIK
modifications: Variable heavy chain region; Light chain variable region
- blocking of the Sema3F induced decrease in intracellular phospho-Akt levels ([1]; antibody 10 μg/mL, 25 nM Sema3F 1 hour): blocked the reduction in phospho-Akt levels; also recorded: block semaphorin 3F mediated inhibition of AKT phosphorylation; also recorded: can be blocked

- Kd (Human NRP2 (aa23-855)): 0.15 nM
B2: aNRP2-14v9: humanized, affinity matured anti-NRP2 antibody, target domain a2; VH SEQ ID NO: 53, VL SEQ ID NO: 54 (antibody, V domains shown)
VH: B1 VH
VL: B1 VL with T31H, R91Y
modifications: Variable heavy chain region; Light chain variable region
- effect on NRP2-VEGFR3 (FLT4) heterodimerization (in words) (NRP2/FLT4(VEGFR3)): no significant impact
- effect on NRP2-plexin heterodimerization (in words) (NRP2/PLXNA1): extremely potent inhibition

B3: Sema3F: Semaphorin 3F, NRP2 ligand used to reduce phospho-Akt levels (protein)
chain: SFPTQDHLPATPRVRLSFKELKATGTAHFFNFLLNTTDYRILLKDEDHDRMYVGSKDYVLSLDLHDINREPLIIHWAASPQRIEECVLSGKDVNGECGNFVRLIQPWNRTHLYVCGTGAYNPMCTYVNRGRRAQATPWTQTQAVRGRGSRATDGALRPMPTAPRQDYIFYLEPERLESGKGKCPYDPKLDTASALINEELYAGVYIDFMGTDAAIFRTLGKQTAMRTDQYNSRWLNDPSFIHAELIPDSAERNDDKLYFFFRERSAEAPQSPAVYARIGRICLNDDGGHCCLVNKWSTFLKARLVCSVPGEDGIETHFDELQDVFVQQTQDVRNPVIYAVFTSSGSVFRGSAVCVYSMADIRMVFNGPFAHKEGPNYQWMPFSGKMPYPRPGTCPGGTFTPSMKSTKDYPDEVINFMRSHPLMYQAVYPLQRRPLVVRTGAPYRLTTIAVDQVDAADGRYEVLFLGTDRGTVQKVIVLPKDDQELEELMLEEVEVFKDPAPVKTMTISSKRQQLYVASAVGVTHLSLHRCQAYGAACADCCLARDPYCAWDGQACSRYTASSKRASRAQDVRHGNPIRQCRGFNSNANKNAVESVQYGVAGSAAFLECQPRSPQATVKWLFQRDPGDRRREIRAEDRFLRTEQGLLLRALQLSDRGLYSCTATENNFKHVVTRVQLHVLGRDAVHAALFPPLSMSAPPPPGAGPPTPPYQELAQLLAQPEVGLIHQYCQGYWRHVPPSPREAPGAPRSPEPQDQKKPRNRR
- decrease in intracellular phospho-Akt levels ([1]; 25 nM Sema3F, 1 hour): approximately 50%

Source: patent US12410253B2, “Compositions comprising anti-NRP2 antibodies” (aTyr Pharma, Inc., priority 2019, dated 2025)
